Results reported in article PMC5665528, “Characterization of the deubiquitination activity and substrate specificity of the chicken ubiquitin-specific protease 1/USP associated factor 1 complex” (PLoS ONE, 2017).

Molecular target: T1, chicken ubiquitin-specific protease 1, chUSP1^GG680,681AA double mutant (full-length control) (chicken, UniProt F1NPR3 1-794, G680A | G681A)
T1 sequence (looked up): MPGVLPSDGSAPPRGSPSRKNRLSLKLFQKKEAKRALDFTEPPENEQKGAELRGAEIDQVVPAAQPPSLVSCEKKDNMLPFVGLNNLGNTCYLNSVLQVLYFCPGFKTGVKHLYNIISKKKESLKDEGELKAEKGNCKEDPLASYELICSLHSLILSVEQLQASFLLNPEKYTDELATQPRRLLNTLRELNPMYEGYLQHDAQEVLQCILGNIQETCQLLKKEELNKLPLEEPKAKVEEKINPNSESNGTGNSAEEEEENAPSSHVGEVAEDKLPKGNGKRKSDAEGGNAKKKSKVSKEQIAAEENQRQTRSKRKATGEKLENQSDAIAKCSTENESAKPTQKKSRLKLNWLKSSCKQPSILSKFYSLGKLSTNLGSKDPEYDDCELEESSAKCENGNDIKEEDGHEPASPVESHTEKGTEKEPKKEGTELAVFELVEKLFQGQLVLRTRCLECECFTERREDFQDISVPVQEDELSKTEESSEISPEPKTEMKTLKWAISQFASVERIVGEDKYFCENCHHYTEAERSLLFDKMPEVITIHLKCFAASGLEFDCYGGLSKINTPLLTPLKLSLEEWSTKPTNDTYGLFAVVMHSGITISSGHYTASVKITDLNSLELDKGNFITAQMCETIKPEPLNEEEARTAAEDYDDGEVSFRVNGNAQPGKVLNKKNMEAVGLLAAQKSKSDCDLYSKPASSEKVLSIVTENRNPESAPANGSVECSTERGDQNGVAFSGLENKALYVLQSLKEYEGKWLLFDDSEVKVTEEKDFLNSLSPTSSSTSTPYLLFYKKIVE
Experiment: cell-based or functional assay

B1: chicken USP associated factor 1, untagged (natural protein)
chain: not shown
- KM of chUSP1^FL (hydrolysis of Ub-AMC) in the presence of chUAF1 against chUSP1^FL alone, fold decrease: 2.87 fold
- deubiquitination activity (kcat/KM, hydrolysis of Ub-AMC) of chUSP1^FL/chUAF1 against chUSP1^FL alone: 54 fold
- deubiquitination activity of 125 nM chUSP1^FL (AMC fluorescence from 100 nM Ub-AMC) three minutes after the addition of 125 nM chUAF1, against the control without chUAF1: > 2 fold
- kcat of chUSP1^FL (hydrolysis of Ub-AMC) in the presence of chUAF1 against chUSP1^FL alone: 21 fold
